{
  "source": "patent US20230203146A1",
  "about": "(Boehringer Ingelheim, published 2023)",
  "binders": {"B1": {"name": "VHH 12A08 (VHH)", "VHH": "EVQLVESGRGLVQAGGSLRLSCAASGSIFSINAMLWYRQAPGKQRELVAAITSGGSTNYADSVKGRFTISRDNAKNTVYLQMNSLKPEDTAVYYCAADSDYSSDYYYWGQGTQVTVSS", "notes": "Tested as periplasmic extract; also called 012A08; not shown: C-terminal c-myc tag and His6 tag"}, "B2": {"name": "VHH 25B01 (VHH)", "VHH": "EVQLVESGGGLVQAGGSLRLSCAASGFTFDDYAIGWFRQAPGKEREGVSCISSSDGSTYYADSVKGRFTISSDNAKNTVYLQMNSLKPEDTAVYYCAAAWGASRLPIGTMPPYEYDYWGQGTQVTVSS", "notes": "Tested as periplasmic extract; also called 025B01; not shown: C-terminal c-myc tag and His6 tag"}, "B3": {"name": "VHH 00921 (VHH, not shown: small tags and cut ends)", "VHH": "EVQLVESGGGLVQPGGSLRLSCAASGFTFDDYALGWFRQAPGKEREGVSCIRCSGGSTYYADSVKGRFTISSDNSKNTVYLQMNSLRPEDTAVYYCAASIVPRSKLEPYEYDAWGQGTLVTVSS"}, "B4": {"name": "VHH 00928 (VHH, not shown: small tags and cut ends)", "VHH": "EVQLVESGGGLVQPGGSLRLSCAASGFALDYYAIGWFRQAPGKEREGVSCISSSGGITYYADSVKGRFTISRDNSKNTVYLQMNSLRPEDTAVYYCATDSGGYIDYDCSGLGYDYWGQGTLVTVSS"}, "B5": {"name": "VHH 1E01 (VHH)", "VHH": "EVQLVESGGGLVQPGGSLRLSCVHSGTISSTHAMGWYRQAPGKQREHVATFTNRGSTYYAGSVKGRFTISRDNAKNTMYLQMNSLKPEDTAVYYCNTGPYWGQGTQVTVSS", "notes": "Tested as periplasmic extract; also called 001E01; not shown: C-terminal c-myc tag and His6 tag"}},
  "key": {"[1]": {"molecular_target": "T1, FLAG-tagged recombinant human Ang1 (Alexis Biochemicals) (human, UniProt Q15389 20-498, limits assumed)", "T1 construct": "Bought reagent; also called hAng1; FLAG-hAng1", "T1 sequence (looked up)": "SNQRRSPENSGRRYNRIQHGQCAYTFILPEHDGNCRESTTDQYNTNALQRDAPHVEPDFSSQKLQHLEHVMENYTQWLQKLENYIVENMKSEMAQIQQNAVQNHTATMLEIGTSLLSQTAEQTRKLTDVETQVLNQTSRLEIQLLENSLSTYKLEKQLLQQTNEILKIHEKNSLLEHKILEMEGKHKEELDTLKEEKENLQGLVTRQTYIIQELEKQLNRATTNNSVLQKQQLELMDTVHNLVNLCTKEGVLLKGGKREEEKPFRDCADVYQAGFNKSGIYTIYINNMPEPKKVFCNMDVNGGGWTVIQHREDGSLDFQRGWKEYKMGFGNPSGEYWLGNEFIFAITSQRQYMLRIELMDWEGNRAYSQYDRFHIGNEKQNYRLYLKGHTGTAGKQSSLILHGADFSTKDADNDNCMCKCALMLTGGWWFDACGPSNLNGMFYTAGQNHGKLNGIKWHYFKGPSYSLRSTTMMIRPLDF", "experiment": "competition ELISA, periplasmic extract, FLAG-hAng1 on hTie2/Fc", "experimental": "In brief, human Tie2/Fc chimera (R&D Systems, Minneapolis, Minn., USA) is biotinylated using N-hydroxysulfosuccinimide ester of biotin (Thermo Fisher Scientific, Rockford, Ill., USA). […] To this mixture, the Acceptor beads and 0.3 nM biotinylated human Tie2/Fc chimeras are added and further incubated for 2 hours at room temperature. Finally, streptavidin conjugated Donor beads (Perkin Elmer, Waltham, Mass., US) are added and the mixture is incubated for an additional 2 hours at room temperature. Assay buffer is PBS+0.03% Tween-20+0.1% BSA. Fluorescence is measured using the Envision Multilabel Plate reader (Perkin Elmer, Waltham, Mass., USA) using an excitation wavelength of 680 nm and an emission wavelength of 520 nm. […] In brief, human or mouse Tie2/Fc chimera (R&D Systems, Minneapolis, Minn., USA) are immobilized at 2 μg/mL overnight at 4° C. in a 96-well MaxiSorp plate (Nunc, Wiesbaden, Germany). Wells are blocked with a 1% casein solution. […] This mixture is added to the Tie2/Fc coated well and incubated for 2 hours at room temperature. Residual binding of Ang is detected using HRP-conjugated anti-FLAG M2 antibody (Sigma, St Louis, Mo., USA)."}, "FLAG-tagged mouse Ang2 [2]": {"molecular_target": "T2, FLAG-tagged mouse Ang2 (mouse, UniProt O35608 19-496)", "T2 construct": "N-terminally FLAG-tagged, conditioned medium of HEK293T cells; also called mAng2; FLAG-mAng2", "T2 sequence": "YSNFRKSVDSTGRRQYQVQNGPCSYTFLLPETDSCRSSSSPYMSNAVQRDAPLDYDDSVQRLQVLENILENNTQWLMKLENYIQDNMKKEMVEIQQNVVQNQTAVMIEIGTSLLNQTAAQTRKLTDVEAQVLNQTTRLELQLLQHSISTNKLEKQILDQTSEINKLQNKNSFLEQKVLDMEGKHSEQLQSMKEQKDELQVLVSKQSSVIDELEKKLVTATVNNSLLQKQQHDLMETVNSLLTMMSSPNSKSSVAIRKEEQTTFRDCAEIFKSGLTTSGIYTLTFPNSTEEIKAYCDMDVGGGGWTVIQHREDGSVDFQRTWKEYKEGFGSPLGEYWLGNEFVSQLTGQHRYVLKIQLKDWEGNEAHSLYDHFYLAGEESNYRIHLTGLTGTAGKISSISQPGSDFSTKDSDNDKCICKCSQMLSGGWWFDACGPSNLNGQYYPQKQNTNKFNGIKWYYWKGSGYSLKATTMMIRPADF", "experiment": "competition ELISA: FLAG-mAng2 binding to coated mTie2-Fc", "experimental": "(§1) In brief, 2 μg/mL of recombinant mouse Tie2-Fc or cyno Tie2-Fc is coated overnight at 4° C. in a 96-well MaxiSorp plate (Nunc, Wiesbaden, Germany). Coated wells are blocked with a 1% casein solution."}, "[3]": {"molecular_target": "T3, FLAG-tagged cynomolgus Ang2 (cynomolgus, UniProt O15123 19-496 (human entry), limits assumed)", "T3 construct": "N-terminally FLAG-tagged, conditioned medium of HEK293T cells; also called cAng2; FLAG-cAng2", "T3 chain": "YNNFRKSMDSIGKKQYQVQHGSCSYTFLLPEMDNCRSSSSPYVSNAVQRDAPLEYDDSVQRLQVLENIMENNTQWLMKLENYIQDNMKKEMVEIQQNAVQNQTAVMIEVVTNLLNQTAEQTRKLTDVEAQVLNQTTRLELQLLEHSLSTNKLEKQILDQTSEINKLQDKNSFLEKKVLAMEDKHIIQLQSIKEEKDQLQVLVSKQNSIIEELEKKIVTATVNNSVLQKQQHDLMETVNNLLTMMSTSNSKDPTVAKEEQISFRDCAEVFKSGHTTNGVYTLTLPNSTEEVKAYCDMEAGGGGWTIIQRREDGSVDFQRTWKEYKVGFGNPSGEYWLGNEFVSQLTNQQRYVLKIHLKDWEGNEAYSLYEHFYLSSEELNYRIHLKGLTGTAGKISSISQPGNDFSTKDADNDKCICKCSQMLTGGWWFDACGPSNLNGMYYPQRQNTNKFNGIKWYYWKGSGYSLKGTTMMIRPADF", "experiment": "competition ELISA: FLAG-cAng2 binding to coated cTie2-Fc", "experimental": "as §1"}, "[4]": {"molecular_target": "T4, recombinant cynomolgus Ang2-FLD (cynomolgus, UniProt A0A2K5VNX6 275-496)", "T4 construct": "domain: FLD; also called cyno Ang2-FLD", "T4 sequence": "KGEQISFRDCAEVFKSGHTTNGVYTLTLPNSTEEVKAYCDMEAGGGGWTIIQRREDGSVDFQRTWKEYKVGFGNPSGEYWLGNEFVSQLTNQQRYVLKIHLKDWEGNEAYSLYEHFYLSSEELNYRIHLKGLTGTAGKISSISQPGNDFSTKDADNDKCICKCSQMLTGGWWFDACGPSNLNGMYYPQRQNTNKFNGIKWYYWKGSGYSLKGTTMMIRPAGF", "experiment": "SPR (Biacore T100), VHH immobilized, Ang2-FLD injected", "experimental": "(§2) In brief, VHH and benchmark compounds are immobilized on a CM5 chip via amine coupling. […] Ang2-FLD species are allowed to associate for 2 min and to dissociate for 20 min at a flow rate of 45 μL/min. In between injections, the surfaces are regenerated with a 10 sec pulse of 25 mM NaOH and 60 sec stabilization period. Association/dissociation data are evaluated by fitting a 1:1 interaction model (Langmuir binding). The affinity constant KD is calculated from resulting association and dissociation rate constants kₐ and kd and are depicted in Table 8."}, "recombinant rat Ang2-FLD": {"molecular_target": "T5, recombinant rat Ang2-FLD (rat, UniProt O35462 275-496, limits assumed)", "T5 construct": "domain: FLD", "T5 sequence (looked up)": "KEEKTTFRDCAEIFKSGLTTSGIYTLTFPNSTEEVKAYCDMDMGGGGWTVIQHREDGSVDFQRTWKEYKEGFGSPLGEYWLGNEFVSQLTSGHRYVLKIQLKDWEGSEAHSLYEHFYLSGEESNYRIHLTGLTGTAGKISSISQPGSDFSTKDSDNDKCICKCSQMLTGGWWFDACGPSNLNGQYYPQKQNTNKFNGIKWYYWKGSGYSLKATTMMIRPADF", "experiment": "SPR (Biacore T100), VHH immobilized, Ang2-FLD injected", "experimental": "as §2"}, "[5]": {"molecular_target": "T6, recombinant human Ang2-FLD (human, UniProt O15123 275-496, limits assumed)", "T6 construct": "domain: FLD", "T6 sequence (looked up)": "T4 sequence with G2E, V23I, L28F, V35I, A154G, G212A, G221D", "experiment": "SPR (Biacore T100), VHH immobilized, Ang2-FLD injected", "experimental": "as §2"}, "[6]": {"molecular_target": "T7, recombinant mouse Ang2-FLD (mouse, UniProt O35608 275-496, limits assumed)", "T7 construct": "domain: FLD", "T7 sequence (looked up)": "T5 sequence (looked up) with K4Q, V35I, M43V, S91G, G92Q, S107N, E114D, S119A, T168S", "experiment": "SPR (Biacore T100), VHH immobilized, Ang2-FLD injected", "experimental": "as §2"}, "FLAG-tagged mouse Ang2 [7]": {"molecular_target": "T2, FLAG-tagged mouse Ang2", "experiment": "competition ELISA: FLAG-mAng2 binding to coated mTie2-Fc", "experimental": "as §1", "remark": "listed apart in the source"}, "[8]": {"molecular_target": "T3, FLAG-tagged cynomolgus Ang2", "experiment": "competition ELISA: FLAG-cAng2 binding to coated cTie2-Fc", "experimental": "as §1"}},
  "note": "Changes are numbered by the printed parent chain. Where two headings read alike, the source gives them in different places.",
  "data": [
    {"binder": "B1", "values": [
      {"measurement": "% inh", "setting": "[1]", "value": 3, "unit": "%"}
    ]},
    {"binder": "B2", "values": [
      {"measurement": "% inh", "setting": "[1]", "value": 4, "unit": "%"}
    ]},
    {"binder": "B3", "values": [
      {"measurement": "IC50", "setting": "FLAG-tagged mouse Ang2 [2]", "value": 27, "unit": "nM"},
      {"measurement": "IC50", "setting": "[3]", "value": 37, "unit": "nM"},
      {"measurement": "Kd", "setting": "[4]", "value": 2.3, "unit": "nM"},
      {"measurement": "koff", "setting": "[4]", "value": 0.025, "unit": "s⁻¹"},
      {"measurement": "kon", "setting": "[4]", "value": "1.1e+07", "unit": "M⁻¹ s⁻¹"},
      {"measurement": "Kd", "setting": "recombinant rat Ang2-FLD", "value": 42, "unit": "nM"},
      {"measurement": "koff", "setting": "recombinant rat Ang2-FLD", "value": 0.049, "unit": "s⁻¹"},
      {"measurement": "kon", "setting": "recombinant rat Ang2-FLD", "value": "1.2e+06", "unit": "M⁻¹ s⁻¹"},
      {"measurement": "Kd", "setting": "[5]", "value": 6.6, "unit": "nM"},
      {"measurement": "koff", "setting": "[5]", "value": 0.027, "unit": "s⁻¹"},
      {"measurement": "kon", "setting": "[5]", "value": "4e+06", "unit": "M⁻¹ s⁻¹"},
      {"measurement": "Kd", "setting": "[6]", "value": 7.5, "unit": "nM"},
      {"measurement": "koff", "setting": "[6]", "value": 0.025, "unit": "s⁻¹"},
      {"measurement": "kon", "setting": "[6]", "value": "3.3e+06", "unit": "M⁻¹ s⁻¹"}
    ]},
    {"binder": "B4", "values": [
      {"measurement": "IC50", "setting": "FLAG-tagged mouse Ang2 [7]", "value": 0.2, "unit": "nM"},
      {"measurement": "IC50", "setting": "[8]", "value": 0.39, "unit": "nM"},
      {"measurement": "Kd", "setting": "[4]", "value": 0.05, "unit": "nM"},
      {"measurement": "koff", "setting": "[4]", "value": "4.9e-05", "unit": "s⁻¹"},
      {"measurement": "kon", "setting": "[4]", "value": 970000, "unit": "M⁻¹ s⁻¹"},
      {"measurement": "Kd", "setting": "recombinant rat Ang2-FLD", "value": 0.29, "unit": "nM"},
      {"measurement": "koff", "setting": "recombinant rat Ang2-FLD", "value": "5.4e-05", "unit": "s⁻¹"},
      {"measurement": "kon", "setting": "recombinant rat Ang2-FLD", "value": 180000, "unit": "M⁻¹ s⁻¹"},
      {"measurement": "Kd", "setting": "[5]", "value": 0.064, "unit": "nM"},
      {"measurement": "koff", "setting": "[5]", "value": "4e-05", "unit": "s⁻¹"},
      {"measurement": "kon", "setting": "[5]", "value": 620000, "unit": "M⁻¹ s⁻¹"},
      {"measurement": "Kd", "setting": "[6]", "value": 0.17, "unit": "nM"},
      {"measurement": "koff", "setting": "[6]", "value": "7.3e-05", "unit": "s⁻¹"},
      {"measurement": "kon", "setting": "[6]", "value": 420000, "unit": "M⁻¹ s⁻¹"}
    ]},
    {"binder": "B5", "values": [
      {"measurement": "% inh", "setting": "[1]", "value": 4, "unit": "%"}
    ]}
  ]
}
